In publication PMC9674577:

Key:
RocC24-126 = RocC24-126 (Legionella pneumophila Paris, UniProt A0A3A6VMJ3 24-126); experiment: FP; […]; ITC: 25 mM HEPES pH 7.3, 150 mM NaCl, 10% glycerol, 1 mM TCEP, 25 C; conditions: protein: recombinant; tags: GST removed by 3C protease; label: 5' FAM; hairpin, 5-nt 3' tail
FinO45-186 = target: T1, FinO45-186 (Escherichia coli (F plasmid)?, UniProt P29367 45-186); experiment: as above; conditions: protein: recombinant; tags: GST removed by 3C protease; label: 5' FAM; hairpin, 5-nt 3' tail
T1 sequence: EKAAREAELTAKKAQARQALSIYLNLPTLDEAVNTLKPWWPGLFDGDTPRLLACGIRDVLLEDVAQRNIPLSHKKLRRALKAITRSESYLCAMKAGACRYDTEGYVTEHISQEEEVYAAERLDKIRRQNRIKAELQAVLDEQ

RocC14-126 [1] = target: T2, RocC14-126 (Legionella pneumophila Paris, UniProt A0A3A6VMJ3 14-126); experiment: ITC; little if any binding; […]; ITC: 25 mM HEPES pH 7.3, 150 mM NaCl, 10% glycerol, 1 mM TCEP, 25 C; conditions: protein: recombinant; tags: GST removed by 3C protease; hairpin, 5-nt 3' tail
RocC14-126 [2] = target: T2, RocC14-126; experiment: EMSA; similar to 1-126; […]; ITC: 25 mM HEPES pH 7.3, 150 mM NaCl, 10% glycerol, 1 mM TCEP, 25 C; conditions: protein: recombinant; tags: GST removed by 3C protease; label: 5' 32P; hairpin, 5-nt 3' tail
RocC1-126 = RocC1-126 (Legionella pneumophila Paris, UniProt A0A3A6VMJ3 1-126); experiment: EMSA; […]; ITC: 25 mM HEPES pH 7.3, 150 mM NaCl, 10% glycerol, 1 mM TCEP, 25 C; conditions: protein: recombinant; tags: GST removed by 3C protease; label: 5' 32P; hairpin, 5-nt 3' tail
RocC14-126 [3] = target: T2, RocC14-126; experiment: ITC; 1:1; […]; ITC: 25 mM HEPES pH 7.3, 150 mM NaCl, 10% glycerol, 1 mM TCEP, 25 C; conditions: protein: recombinant; tags: GST removed by 3C protease

B1: FAM-RocRSL3 (5-nt tail) (structured_RNA)
RNA: UGGGUCAAUUGGCGACACACUGAUUGGCCCUUUCU
B1 was tested, and the binding signal (RocC24-126) was ~3 fold weaker than RocC1-126 and the binding result (FinO45-186) was “binds”.

B2: RocRP (RocRSL3 3'-phosphate) (structured_RNA)
RNA: UGGGUCAAUUGGCGACACACUGAUUGGCCCUUUCU
modifications: 3'-phosphate
B2: no binding (RocC14-126 [1]).

B3: RocRSL3 (IVT) (structured_RNA)
RNA: GGGUGGGUCAAUUGGCGACACACUGAUUGGCCCUUUCU
B3: binds (RocC14-126 [2]); binds (RocC1-126).

B4: 10-nt single-stranded RNA (ssRNA)
RNA: GGCCCUUUCU
In the case of B4, the binding signal (RocC14-126 [3]) is reported as ~19 fold weaker than RocR9bp-tet.
